In patent US20220125891A1 (OSAKA UNIVERSITY, published 2022):
Positions count from the first letter of the chain named. Positions of bridges follow the written chain, without caps; N, C: chain ends. Non-standard residues stand in square brackets, D forms with d. No end group written: not given here. NMeA = CN[C@@H](C)C(=O)O; dNMeA = CN[C@H](C)C(=O)O

T1: full-length human Regnase-1 with a FLAG tag on the N-terminal side and a biotin ligase BirA recognition … (human, UniProt Q5D1E8 1-599, biotinylated where required ; Biotinylated at the BirA recognition sequence where required. That sequence is not in the letters.)
T1 sequence: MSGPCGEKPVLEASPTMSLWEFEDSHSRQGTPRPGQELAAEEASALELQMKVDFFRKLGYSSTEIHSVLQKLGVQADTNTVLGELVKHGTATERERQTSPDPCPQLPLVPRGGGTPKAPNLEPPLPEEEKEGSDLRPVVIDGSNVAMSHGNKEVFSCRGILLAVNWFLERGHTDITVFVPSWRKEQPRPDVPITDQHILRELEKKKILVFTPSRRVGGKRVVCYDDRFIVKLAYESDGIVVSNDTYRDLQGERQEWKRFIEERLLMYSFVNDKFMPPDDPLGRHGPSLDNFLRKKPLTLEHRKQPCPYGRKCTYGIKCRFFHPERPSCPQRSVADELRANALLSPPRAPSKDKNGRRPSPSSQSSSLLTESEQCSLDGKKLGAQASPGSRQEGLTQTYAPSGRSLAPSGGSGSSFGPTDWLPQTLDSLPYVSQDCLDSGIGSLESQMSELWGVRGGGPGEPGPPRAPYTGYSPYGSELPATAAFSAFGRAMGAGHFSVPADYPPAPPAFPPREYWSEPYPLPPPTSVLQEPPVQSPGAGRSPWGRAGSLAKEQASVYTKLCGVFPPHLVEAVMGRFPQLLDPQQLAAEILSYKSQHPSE

T2: Reg1_301-599 (human Regnase-1 amino acids 301 to 599, FLAG tag on the N-terminal side, BirA recognition … (human))
T2 sequence (Q5D1E8 301-599, looked up): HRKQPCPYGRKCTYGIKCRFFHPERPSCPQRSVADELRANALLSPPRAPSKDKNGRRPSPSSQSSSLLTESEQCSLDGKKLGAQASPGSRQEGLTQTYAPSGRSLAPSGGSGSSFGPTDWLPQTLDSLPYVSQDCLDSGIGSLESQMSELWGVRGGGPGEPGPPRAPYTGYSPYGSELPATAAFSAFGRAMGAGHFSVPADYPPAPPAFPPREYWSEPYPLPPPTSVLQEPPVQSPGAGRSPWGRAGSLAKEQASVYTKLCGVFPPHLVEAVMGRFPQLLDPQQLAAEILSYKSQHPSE

B1: PP1 (peptide)
peptide: [NMeA]TSWYKVNWGQD
modifications: lactam N-12
B2: PP3 (peptide)
peptide: [dNMeA]KHASAWYRIWD
modifications: lactam N-12
B3: PP2 (peptide)
peptide: [NMeA]GYANSWYNIWD
modifications: lactam N-12
B4: PP4 (peptide)
peptide: [NMeA]YIWDFFGDLD
modifications: lactam N-11
B5: PP5 (peptide)
peptide: [NMeA]HSNAWYNIWD
modifications: lactam N-11
B6: PP6 (peptide)
peptide: [dNMeA]PNSSWFKIWD
modifications: lactam N-11
B7: PP23 (peptide)
peptide: [dNMeA]PTSSWYKIWD
modifications: lactam N-11
B8: PP22 (peptide)
peptide: [NMeA]NSWYRIWGLD
modifications: lactam N-11
B9: REB0014 (antibody, V domains shown)
VH: QSLEESGGGLVKPGGTLTLTCKASGIDFSSYYYMCWVRQAPGKGLEWIACIYSGDGSSYYVSWANGRFTISKTSSATVTLQMTSLTAADTATYFCARDLGNLWGPGTLVTVSS
VL: QVLTQTPASVSAAVGGTVTINCQASQSVYKNSGLSWFQQKPGQSPKRLIYSASTLDSGVPSRFKGSGSGTQFTLTISDVQCDDAATYYCLGIYVCSSVDCGAFGGGTEVVVKG
notes: Rabbit antibody gene expressed in HEK293 cells, purified by Protein A; also called anti-Regnase-1 antibody; anti-non-phosphorylated Regnase-1 peptide antibody
B10: REB0007 (antibody, V domains shown)
VH: QEQLEESGGDLVKPEGSLTLTCTASGFSFNSRYWICWVRQAPGKGLEWIGCIVSGDSNTYYASWAKGRFTISKTSSTTVTLQMTSLTAADTATYFCARWYTSSRPGLWGPGTLVTVSS
VL: DVVMTQTPASVSEPVGGTVTIKCQASQSISSYLSWYQQKPGQPPKLLIYSATNLASGVSSRFKGSRFGTEFTLTISDLECDDAATYYCQCSYYVSGFAFGGGTEVVVKG
notes: as for B9
B11: REB0022 (antibody, V domains shown)
VH: QEQLEESGGDLVKPEGSLTLTCTASGGSFSSRYWMCWVRQAPGKGLEWIACIVIGDRNNYYASWAKGRFTISKTSSTTVTLQMTSLTAADTATYFCARWHSSTAPSLWGPGTLVTVSS
VL: B10 VL with K22N, S50K, T52S, N53T, R66G, F67S, D81A, A98V
notes: as for B9

target: T1, full-length human Regnase-1 with a FLAG …; test: cell-based or functional assay

| Binder | IC50, phosphorylation by IKKβ | IC50, phosphorylation by TBK1 |
| --- | --- | --- |
| B1 | 28.1 µM | 54.5 µM |
| B2 | 4.6 µM | 3.9 µM |
| B3 | 16.6 µM | 21.7 µM |
| B4 | 19.5 µM | 61.9 µM |
| B5 | 23.6 µM | 24.2 µM |
| B6 | 17 µM | 13.1 µM |

target: T3, ΔCTD_Reg1 (human Regnase-1 amino acids 1 to 546, FLAG tag on the N-terminal side, BirA recognition sequence … (human)); test: cell-based or functional assay

| Binder | IC50, phosphorylation by IKKβ | IC50, phosphorylation by TBK1 |
| --- | --- | --- |
| B1 | > 62.1 µM | > 62.1 µM |
| B2 | 8.3 µM | 5.7 µM |
| B3 | 14 µM | 17.6 µM |
| B4 | 8.3 µM | 44.9 µM |
| B5 | 20.4 µM | 19.1 µM |
| B6 | 20.3 µM | 14.5 µM |

target: T1, full-length human Regnase-1 with a FLAG …; test: cell-based or functional assay; remark: another data set of the same source

| Binder | IC50, phosphorylation by TBK1 |
| --- | --- |
| B1 | 54.5 µM |
| B2 | 3.9 µM |
| B7 | 18.8 µM |
| B3 | 21.7 µM |
| B8 | 24.3 µM |
| B4 | 61.9 µM |
| B5 | 24.2 µM |
| B6 | 13.1 µM |

target: T3, ΔCTD_Reg1 (human Regnase-1 amino acids …); test: cell-based or functional assay; remark: another data set of the same source

| Binder | IC50, phosphorylation by TBK1 |
| --- | --- |
| B1 | > 62.1 µM |
| B2 | 5.7 µM |
| B7 | 29.7 µM |
| B3 | 17.6 µM |
| B8 | 22.8 µM |
| B4 | 44.9 µM |
| B5 | 19.1 µM |
| B6 | 14.5 µM |

target: T2, Reg1_301-599 (human Regnase-1 amino …); test: cell-based or functional assay

| Binder | IC50, phosphorylation by TBK1 |
| --- | --- |
| B1 | > 62.1 µM |
| B2 | 7.1 µM |
| B7 | 30.7 µM |
| B3 | 22.4 µM |
| B8 | 25.8 µM |
| B4 | 35.9 µM |
| B5 | 40.4 µM |
| B6 | 16.8 µM |

target: T1, full-length human Regnase-1 with a FLAG …; test: cell-based or functional assay; remark: another data set of the same source

| Binder | IC50, phosphorylation by IKKβ |
| --- | --- |
| B1 | 28.1 µM |
| B2 | 4.6 µM |
| B7 | 25.6 µM |
| B3 | 16.6 µM |
| B8 | 15 µM |
| B4 | 19.5 µM |
| B5 | 23.6 µM |
| B6 | 17 µM |

target: T3, ΔCTD_Reg1 (human Regnase-1 amino acids …); test: cell-based or functional assay; remark: another data set of the same source

| Binder | IC50, phosphorylation by IKKβ |
| --- | --- |
| B1 | > 62.1 µM |
| B2 | 8.3 µM |
| B7 | > 62.1 µM |
| B3 | 14 µM |
| B8 | 34 µM |
| B4 | 8.3 µM |
| B5 | 20.4 µM |
| B6 | 20.3 µM |

target: T2, Reg1_301-599 (human Regnase-1 amino …); test: cell-based or functional assay; remark: another data set of the same source

| Binder | IC50, phosphorylation by IKKβ |
| --- | --- |
| B1 | > 62.1 µM |
| B2 | 6.8 µM |
| B7 | > 62.1 µM |
| B3 | 18.5 µM |
| B8 | 31 µM |
| B4 | 12.8 µM |
| B5 | 31.3 µM |
| B6 | 17.5 µM |

target: T1, full-length human Regnase-1 with a FLAG …; test: AlphaScreen, blocks IKKβ binding to FL_Reg1

| Binder | IC50 |
| --- | --- |
| B1 | > 62.1 µM |
| B2 | 8.3 µM |
| B3 | 35.8 µM |
| B4 | 47.7 µM |
| B5 | 24 µM |
| B6 | 42.1 µM |

target: T1, full-length human Regnase-1 with a FLAG …; test: AlphaScreen, blocks TBK1 binding to FL_Reg1

| Binder | IC50 |
| --- | --- |
| B1 | > 62.1 µM |
| B2 | 3.1 µM |
| B3 | 15.5 µM |
| B4 | 24.4 µM |
| B5 | 11.5 µM |
| B6 | 19.2 µM |

target: T1, full-length human Regnase-1 with a FLAG …; test: AlphaScreen, blocks TBK1 binding to FL_Reg1; remark: another data set of the same source

| Binder | IC50 |
| --- | --- |
| B1 | > 62.1 µM |
| B2 | 3.1 µM |
| B7 | 9.2 µM |
| B3 | 15.5 µM |
| B8 | 11.4 µM |
| B4 | 24.4 µM |
| B5 | 11.5 µM |
| B6 | 19.2 µM |

target: T1, full-length human Regnase-1 with a FLAG …; test: AlphaScreen, blocks IKKβ binding to FL_Reg1; remark: another data set of the same source

| Binder | IC50 |
| --- | --- |
| B1 | > 62.1 µM |
| B2 | 8.3 µM |
| B7 | 41.3 µM |
| B3 | 35.8 µM |
| B8 | 26.8 µM |
| B4 | 47.7 µM |
| B5 | 24 µM |
| B6 | 42.1 µM |

target: T1, full-length human Regnase-1 with a FLAG …; test: affinity selection-MS (SEC, LC/MS), 1 µM each

| Binder | AS-MS ratio(%) |
| --- | --- |
| B1 | 21.8% |
| B2 | 1.2% |
| B7 | 28.6% |
| B3 | 14.2% |
| B8 | 14.5% |
| B4 | 37.5% |
| B5 | 20.8% |
| B6 | 6.4% |

target: T1, full-length human Regnase-1 with a FLAG …; test: flow cytometry of antigen-coated streptavidin beads

| Binder | binding result |
| --- | --- |
| B9 | binds |
| B10 | binds |
| B11 | binds |
